Results on one molecule are retold here after patent publication US20230295308A1, “ANTAGONISTIC BIPARATOPIC ANTIBODIES THAT SPECIFICALLY BIND FIBROBLAST GROWTH FACTOR RECEPTOR 2 AND METHODS OF USING SAME” (The Broad Institute, Inc., priority 2020, published 2023).

“Also recorded” adds a separate entry of the source.

For assay [1], the target named is FGFR2 on SNU-16 gastric cancer cell line with FGFR2 amplification (UniProt P21802). Description: FACS on SNU-16 cells, % No. of cells with FITC+ [cont.].
Assay [2] deals with FGFR2b alpha IIIb antigen (UniProt P21802). Description: SPR (Biacore), antibody on chip, FGFR2b alpha IIIb antigen.
The target of assay [3] is T1, FGFR2IIIb.
T1 construct: also called purified FGFR2IIIb
T1 chain: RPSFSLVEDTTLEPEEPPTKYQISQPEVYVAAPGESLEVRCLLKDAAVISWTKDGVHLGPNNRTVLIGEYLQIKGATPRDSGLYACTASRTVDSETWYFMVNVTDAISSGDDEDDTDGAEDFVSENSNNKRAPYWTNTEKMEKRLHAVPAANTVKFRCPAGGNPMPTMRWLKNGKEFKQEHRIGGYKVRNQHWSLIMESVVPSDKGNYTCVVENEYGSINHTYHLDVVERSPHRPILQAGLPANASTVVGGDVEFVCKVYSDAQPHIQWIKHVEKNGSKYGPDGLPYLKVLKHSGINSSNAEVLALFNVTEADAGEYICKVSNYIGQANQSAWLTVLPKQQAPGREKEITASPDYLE
Briefly: row 'Kd (nM) (patent)', value quoted from the source patent; method: solution equilibrium titration (SET)/ELISA+ECL-FGFR2IIIb. For orientation: An ELISA detects its analyte on a solid surface through an enzyme-linked reagent.

In assay [4] the target is FGFR2b alpha IIIb (Homo sapiens, UniProt P21802). Description: Surface Plasmon Resonance (SPR) binding. The settings on record: FGFR2b alpha IIIb antigen. The source says: FIGS. 17A-17C provide a schematic and tabular data related to assessments made to compare the avidity of biparatopic antibodies to that of their parental (bivalent monospecific) antibodies.
Surface Plasmon Resonance (SPR) as known in the art was used to determine the binding affinities of biparatopic antibodies. The SPR-based binding method involves immobilization of a ligand (antibody) on the surface of a sensor chip. The binding partner of interest or an analyte (FGFR2 ECD) flow through the flow channel. Different concentrations of an analyte flow over the ligand, and the interactions of ligand-analyte can be characterized. The SPR signal originates from changes in the refractive index of the […] at the surface of the sensor chip. The increase in mass associated with a binding event causes a proportional increase in the refractive index, which is observed as a change in response-resonance signal. In brief, for the experiments using the antibodies described herein, the SPR assay was carried out by immobilizing antibodies (used as […]) at a concentration ranging from 1-1000 nM and flow-through FGFR2b alpha IIIb antigen (used as […]). The antibody kinetic data for the interaction with FGFR2b alpha IIb antigen were fitted to the 2-state and 1-1 binding models using Biocore software. The mean and standard deviation KD values are derived from at least three independent runs.
Using SPR, the kinetics of 6 monospecific and 13 biparatopic antibodies for binding to a single antigen, FGFR2b alpha IIb, was measured so as to compare avidity of the biparatopic antibodies to their parental antibodies. Without wishing to be bound by theory, it was expected that the biparatopic antibodies would bind to the FGFR2 antigen more tightly than their parental antibodies and that the tighter binding biparatopic antibodies among the antibodies that were assessed would be more efficient in blocking FGFR2 dimerization (FIG. 17A), thereby leading to inhibition or blocking of constitutive FGFR2 signaling and/or oncogenic transformation. […]

The target of assay [5] is FGFR2 on SNU-16 gastric cancer cell line with FGFR2 amplification (UniProt P21802). Briefly: FACS on SNU-16 cells, % cells with FITC+ against log antibody concentration; Kd printed in the legend box [cont.].
Assay [6] deals with BaF3 cells overexpressing FGFR2-PHGDH. Description: combination of BGJ398 and anti-FGFR2 bivalent antibody, isobolograms and Loewe scores (FIGS. 14, 15). The assay is classed as cell-based. The conditions noted are these: absence of FGF10, treated for 5 days. The source says:
FIGS. 14B-14D provide isobolograms showing synergy between FGFR inhibitor and the anti-[…] bivalent antibody on the different days and supporting the results shown in FIG. 14A. FIG. 14B corresponds to 3 days after treatment with the BGJ398 inhibitor; FIG. 14C corresponds to 4 days after treatment with the BGJ398 inhibitor; and FIG. 14D corresponds to 5 days after treatment with the BGJ398 inhibitor. FIG. 14E provide Loewe scores showing synergy between the FGFR inhibitor and the anti-FGF2 bivalent antibody on the different days and supporting the results shown in FIG. 14A.
FIG. 15A presents charts showing synergy between the FGFR2 small molecule inhibitor BGJ398 and an anti-FGFR2 bivalent antibody (Antibody D) in the presence of FGF ligand (+FGF) in a cell-based assay using BaF3 cells overexpressing an FGFR2 fusion molecule (FGFR2-PHGDH) after 3, 4 and 5 days of treatment with the inhibitor and the antibody. […] FIGS. 15B-15D provide isobolograms showing synergy between the FGFR inhibitor and the anti-FGF2 bivalent antibody on the different days and supporting the results shown in FIG. 15A. FIG. 15B corresponds to 3 days after treatment with the BGJ398 inhibitor; FIG. 15C corresponds to 4 days after treatment with the BGJ398 inhibitor; and FIG. 15D corresponds to 5 days after treatment with the BGJ398 inhibitor. […]

For assay [7], the target named is FGFR2 on SNU-16 gastric cancer cell line with FGFR2 amplification (UniProt P21802). Briefly: row 'Kd (nM) (FACS)'; FACS on SNU-16 cells.
Assay [8] relates to FGFR2-PHDGH fusion expressing BaF3 cells. Briefly: growth of BaF3 cells expressing FGFR2-PHGDH fusion, absence of FGF ligands (FIG. 9). The conditions noted are these: absence of FGF ligands. The assay is classed as cell-based. The protocol:
Antibodies A-F were tested to determine whether they could inhibit the ligand-induced growth of BaF3 cells expressing FGFR2IIIb. Antibodies C, D, and E, which bind FGFR2 Ig-2 and Ig-3, were effective in blocking ligand-induced growth of BaF3 cells expressing wild-type FGFR2IIIb (FIG. 8). The effects of antibodies A-F were then tested on BaF3 cells expressing FGFR2-PHDGH fusions. […] Antibody F inhibited the FGFR2-PHDGH activating fusion in BaF3 cells (FIG. 9).

For assay [9], the target named is FGFR2 on SNU-16 gastric cancer cell line with FGFR2 amplification (UniProt P21802). Briefly: FACS on SNU-16 cells, % cells with FITC+ [cont.].
The target of assay [10] is FGFR2b alpha IIIb antigen (UniProt P21802). Description: SPR (Biacore), antibody immobilized, FGFR2b alpha IIIb in flow.
The test system of assay [11] is FGFR2-PHDGH fusion expressing BaF3 cells. Description: ligand stimulated (FGF10) growth of FGFR2-PHGDH fusion expressing BaF3 cells (FIG. 10). The conditions noted are these: FGF10 present. The assay is classed as cell-based. The protocol:
FIG. 10 is a graph showing that antibodies C, D, E and F have activity against ligand stimulated growth of FGFR2-PHDGH fusion expressing BaF3 cells.
The growth of BaF3 cells expressing an FGFR2-PHDGH fusion was assayed in the presence of FGF ligand, FGF10. Antibodies C, D, E and F inhibited ligand stimulated growth of FGFR2-PHDGH fusion expressing BaF3 cells (FIG. 10). Based on the results reported herein above, antagonistic biparatopic antibodies are made using the FGFR2 antibody combinations shown in FIG. 11A. These combinations result in increased growth inhibition effects in oncogenic or cancer cells (e.g., transformed BaF3 cells) that overexpressed […]. Thus, antibodies that bind to epitopes have increased inhibitory and killing effects against cancer cells. Designs for antagonistic biparatopic antibodies are shown at FIGS. 11B and 11C. Advantageously, including complementary mutations in VH-VL and CH1-CL on one-half of the biparatopic antibody results in preferential heterodimeric pairing between two different chains rather than chains from the other half of the same antibody. Alternatively, a linker method is used to create scFab, scFv, or DuoBodies. In this method two antibody chains are each generated in different cells and mixed in vitro. Such methods are known in the art and described, for example, by K. Ding et al, March 2017, Appl. Microbiol. […]

B1: 12433 (antibody, V domains shown)
VH: QVQLVQSGAEVKKPGESLKISCKGSGYSFTNYYIHWVRQMPGKGLEWMGAIYPDNSDTTYSPSFQGQVTISADKSISTAYLQWSSLKASDTAMYYCARGADIWGQGTLVTVSS
VL: DIQMTQSPSSLSASVGDRVTITCRASQDIDPYLSNWYQQKPGKAPKLLIYDASNLQSGVPSRFSGSGSGTDFTLTISSLQPEDFATYYCQQTTSHPYTFGQGTKVEIK
notes: the duobody scheme implies IgG1 with K409R or F405L; also called Antibody F; N12433
For orientation: EC50 (read off the curve) means the concentration at which the effect is half-maximal. Read a high EC50 (read off the curve) as a need for much substance. The term Kd denotes the equilibrium constant for the complex coming apart. As for B1, the EC50 (read off the curve) in assay [1] and in assay [9] was 1 µg/mL each time. Also, the Kd in assay [2] was 7.5 nM; in [3], 5.6 nM; in assay [4] it was 7.5 nM; in assay [5], 8.81 nM; in [7] it was 8.81 nM. Also, the “synergy with BGJ398 in inhibiting FGFR2-PHGDH driven BaF3 cell growth” value in [6] is given as “synergizes”. For the same molecule, in assay [8], the “inhibitory activity against the FGFR2-PHGDH activating fusion in BaF3 cells” value is “inhibitory activity; also recorded: inhibited”. In addition, the Binding Stoichiometry in [10] was 2.1. Also, in [11], the “inhibition of ligand stimulated growth of FGFR2-PHGDH fusion expressing BaF3 cells” value is reported as “have activity; also recorded: inhibited”.
